Series [1] addresses T1, UGT1A8 (Homo sapiens, UniProt Q9HAW9).
T1 sequence (Q9HAW9 26-530): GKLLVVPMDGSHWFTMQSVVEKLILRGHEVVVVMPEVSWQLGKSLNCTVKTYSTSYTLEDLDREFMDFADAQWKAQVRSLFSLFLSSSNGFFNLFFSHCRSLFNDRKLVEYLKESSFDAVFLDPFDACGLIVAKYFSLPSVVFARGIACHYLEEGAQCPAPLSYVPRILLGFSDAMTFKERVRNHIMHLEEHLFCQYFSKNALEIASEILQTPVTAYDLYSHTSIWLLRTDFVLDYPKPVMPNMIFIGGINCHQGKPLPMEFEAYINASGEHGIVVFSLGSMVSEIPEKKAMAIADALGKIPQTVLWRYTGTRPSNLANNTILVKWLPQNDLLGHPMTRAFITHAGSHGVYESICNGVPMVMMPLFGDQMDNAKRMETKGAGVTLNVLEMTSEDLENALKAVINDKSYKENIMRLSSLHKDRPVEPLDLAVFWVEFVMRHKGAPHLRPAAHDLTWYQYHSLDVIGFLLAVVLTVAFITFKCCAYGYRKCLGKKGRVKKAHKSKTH
Description: UGT1A8-catalyzed glucuronidation, enzyme kinetics. The following applies: 1% DMSO; entacapone glucuronidation; absence and presence of 0.1% BSA.
Description: Recombinant human UGTs 1A1, 1A6, 1A7, 1A8, 1A10, 2A1, 2B4, 2B7 and 2B17 were expressed as His-tagged proteins in baculovirus-infected insect cells as described previously [14]. […] Protein concentrations were determined by the BCA method (Pierce Biotechnology, Rockford, IL, USA).
(§1) The protein concentrations and incubation times for the enzyme kinetic assays were selected based on preliminary assays in order to ensure that the product formation was within the linear range with respect to both protein concentration and time, and that the substrate consumption during the reaction was less than 10%. The initial velocity measurements were performed in either duplicates or triplicates and they are presented as the average values and S.E.
The glucuronidation rates by recombinant enzymes are reported as “expression normalized” values. The relative expression level of each recombinant UGT that was produced in our laboratory was determined using immunoblotting, as previously described [14], [19]. The dot blot assays were performed in triplicate and the average value was used for normalization. […] The “expression normalized” glucuronidation rates were calculated by dividing the measured glucuronidation rates with relative expression level of the each given recombinant UGT.
(§2) In assays containing BSA, the total concentrations of substrate were corrected according to the measured drug binding to BSA, under the specific conditions of each glucuronidation assay.

Substrate in series [2]: Cc1cc(=O)oc2cc(O)ccc12
Description: purified protein, by the assay type. Particulars: pH 7.4.

Substrate in series [3]: Oc1cccc2ccccc12
Description: purified protein, by the assay type. The following applies: pH 7.4.

Substrate in series [4]: CCN(CC)C(=O)/C(C#N)=C/c1cc(O)c(O)c([N+](=O)[O-])c1
Description: purified protein, by the assay type. The following applies: pH 7.4.
Description: Protein concentrations were determined by the BCA method (Pierce Biotechnology, Rockford, IL, USA).
as §1
The HPLC system consisted of an Agilent 1100 series degasser, binary pump, 100-vial autosampler, thermostated column compartment, multiple wavelengths UV detector, and fluorescence detector (Agilent Technologies, Palo Alto, CA, USA). […] The resulting chromatograms were analyzed with Agilent ChemStation software (rev. B.01.01) on Windows XP Professional. The UPLC system consisted of a Waters Acquity UPLC equipped with column manager, sample manager, binary solvent pump, and photodiode array UV detector (Waters, Milford, MA, USA). The UV detector was equipped with high-sensitivity 2.4 µL flow cell.
as §2

For the molecule `C[S+](C)[O-]` [DMSO, Dimethyl sulfoxide], the “reduction of the UGT activity” value in series [1] is no more than 15%.

B1: UGT1A6 (Homo sapiens) (protein)
chain: DKLLVVPQDGSHWLSMKDIVEVLSDRGHEIVVVVPEVNLLLKESKYYTRKIYPVPYDQEELKNRYQSFGNNHFAERSFLTAPQTEYRNNMIVIGLYFINCQSLLQDRDTLNFFKESKFDALFTDPALPCGVILAEYLGLPSVYLFRGFPCSLEHTFSRSPDPVSYIPRCYTKFSDHMTFSQRVANFLVNLLEPYLFYCLFSKYEELASAVLKRDVDIITLYQKVSVWLLRYDFVLEYPRPVMPNMVFIGGINCKKRKDLSQEFEAYINASGEHGIVVFSLGSMVSEIPEKKAMAIADALGKIPQTVLWRYTGTRPSNLANNTILVKWLPQNDLLGHPMTRAFITHAGSHGVYESICNGVPMVMMPLFGDQMDNAKRMETKGAGVTLNVLEMTSEDLENALKAVINDKSYKENIMRLSSLHKDRPVEPLDLAVFWVEFVMRHKGAPHLRPAAHDLTWYQYHSLDVIGFLLAVVLTVAFITFKCCAYGYRKCLGKKGRVKKAHKSKTH
With B1, in series [2], the K0.5 is on record as 76.4±15.1(45.3–107.5) uM and the maximum rate (Vmax) (as a rule, the rate approached at saturating substrate) was found to be 0.0052 µmol/min/mg. Besides, the K0.5 in series [3] is 8.07±0.48(7.08–9.06) uM.

B2: UGT1A1 (Homo sapiens) (protein)
chain: HAGKILLIPVDGSHWLSMLGAIQQLQQRGHEIVVLAPDASLYIRDGAFYTLKTYPVPFQREDVKESFVSLGHNVFENDSFLQRVIKTYKKIKKDSAMLLSGCSHLLHNKELMASLAESSFDVMLTDPFLPCSPIVAQYLSLPTVFFLHALPCSLEFEATQCPNPFSYVPRPLSSHSDHMTFLQRVKNMLIAFSQNFLCDVVYSPYATLASEFLQREVTVQDLLSSASVWLFRSDFVKDYPRPIMPNMVFVGGINCLHQNPLSQEFEAYINASGEHGIVVFSLGSMVSEIPEKKAMAIADALGKIPQTVLWRYTGTRPSNLANNTILVKWLPQNDLLGHPMTRAFITHAGSHGVYESICNGVPMVMMPLFGDQMDNAKRMETKGAGVTLNVLEMTSEDLENALKAVINDKSYKENIMRLSSLHKDRPVEPLDLAVFWVEFVMRHKGAPHLRPAAHDLTWYQYHSLDVIGFLLAVVLTVAFITFKCCAYGYRKCLGKKGRVKKAHKSKTH
As for B2, the K0.5 in series [2] is on record as 72.6±6.9(58.2–87.0) uM; in series [3] it was 101±11(78–123) uM. Besides, the maximum rate (Vmax) in series [2] was determined as 0.00011 µmol/min/mg.

B3: UGT2B7 (Homo sapiens) (protein)
chain: GKVLVWAAEYSHWMNIKTILDELIQRGHEVTVLASSASILFDPNNSSALKIEIYPTSLTKTELENFIMQQIKRWSDLPKDTFWLYFSQVQEIMSIFGDITRKFCKDVVSNKKFMKKVQESRFDVIFADAIFPCSELLAELFNIPFVYSLSFSPGYTFEKHSGGFIFPPSYVPVVMSELTDQMTFMERVKNMIYVLYFDFWFEIFDMKKWDQFYSEVLGRPTTLSETMGKADVWLIRNSWNFQFPYPLLPNVDFVGGLHCKPAKPLPKEMEDFVQSSGENGVVVFSLGSMVSNMTEERANVIASALAQIPQKVLWRFDGNKPDTLGLNTRLYKWIPQNDLLGHPKTRAFITHGGANGIYEAIYHGIPMVGIPLFADQPDNIAHMKARGAAVRVDFNTMSSTDLLNALKRVINDPSYKENVMKLSRIQHDQPVKPLDRAVFWIEFVMRHKGAKHLRVAAHDLTWFQYHSLDVIGFLLVCVATVIFIVTKCCLFCFWKFARKAKKGKND
Turning to B3, in series [2], the K0.5 was 301±65(165–436) uM and the Vmax stood at 0.00028 µmol/min/mg.

B4: UGT1A7 (Homo sapiens) (protein)
chain: GKLLVVPMDGSHWFTMQSVVEKLILRGHEVVVVMPEVSWQLGRSLNCTVKTYSTSYTLEDQDREFMVFADARWTAPLRSAFSLLTSSSNGIFDLFFSNCRSLFNDRKLVEYLKESCFDAVFLDPFDACGLIVAKYFSLPSVVFARGIFCHYLEEGAQCPAPLSYVPRLLLGFSDAMTFKERVWNHIMHLEEHLFCPYFFKNVLEIASEILQTPVTAYDLYSHTSIWLLRTDFVLEYPKPVMPNMIFIGGINCHQGKPVPMEFEAYINASGEHGIVVFSLGSMVSEIPEKKAMAIADALGKIPQTVLWRYTGTRPSNLANNTILVKWLPQNDLLGHPMTRAFITHAGSHGVYESICNGVPMVMMPLFGDQMDNAKRMETKGAGVTLNVLEMTSEDLENALKAVINDKSYKENIMRLSSLHKDRPVEPLDLAVFWVEFVMRHKGAPHLRPAAHDLTWYQYHSLDVIGFLLAVVLTVAFITFKCCAYGYRKCLGKKGRVKKAHKSKTH
B4: in series [4], the K0.5 is 33.2±4.0(24.9–41.6) uM and the Vmax turned out to be 0.00015 µmol/min/mg.

B5: UGT1A8 (Homo sapiens) (protein)
chain: GKLLVVPMDGSHWFTMQSVVEKLILRGHEVVVVMPEVSWQLGKSLNCTVKTYSTSYTLEDLDREFMDFADAQWKAQVRSLFSLFLSSSNGFFNLFFSHCRSLFNDRKLVEYLKESSFDAVFLDPFDACGLIVAKYFSLPSVVFARGIACHYLEEGAQCPAPLSYVPRILLGFSDAMTFKERVRNHIMHLEEHLFCQYFSKNALEIASEILQTPVTAYDLYSHTSIWLLRTDFVLDYPKPVMPNMIFIGGINCHQGKPLPMEFEAYINASGEHGIVVFSLGSMVSEIPEKKAMAIADALGKIPQTVLWRYTGTRPSNLANNTILVKWLPQNDLLGHPMTRAFITHAGSHGVYESICNGVPMVMMPLFGDQMDNAKRMETKGAGVTLNVLEMTSEDLENALKAVINDKSYKENIMRLSSLHKDRPVEPLDLAVFWVEFVMRHKGAPHLRPAAHDLTWYQYHSLDVIGFLLAVVLTVAFITFKCCAYGYRKCLGKKGRVKKAHKSKTH
As for B5, the K0.5 in series [2] is 134±9(115–154) uM; in series [4], 73.1±3.7(65.4–80.7) uM. Moreover, the maximum rate (Vmax) in series [2] and in series [4] was 0.0012 µmol/min/mg in each case.

B6: UGT2B4 (Homo sapiens) (protein)
chain: GKVLVWPTEFSHWMNIKTILDELVQRGHEVTVLASSASISFDPNSPSTLKFEVYPVSLTKTEFEDIIKQLVKRWAELPKDTFWSYFSQVQEIMWTFNDILRKFCKDIVSNKKLMKKLQESRFDVVLADAVFPFGELLAELLKIPFVYSLRFSPGYAIEKHSGGLLFPPSYVPVVMSELSDQMTFIERVKNMIYVLYFEFWFQIFDMKKWDQFYSEVLGRPTTLSETMAKADIWLIRNYWDFQFPHPLLPNVEFVGGLHCKPAKPLPKEMEEFVQSSGENGVVVFSLGSMVSNTSEERANVIASALAKIPQKVLWRFDGNKPDTLGLNTRLYKWIPQNDLLGHPKTRAFITHGGANGIYEAIYHGIPMVGVPLFADQPDNIAHMKAKGAAVSLDFHTMSSTDLLNALKTVINDPLYKENAMKLSRIHHDQPVKPLDRAVFWIEFVMRHKGAKHLRVAAHDLTWFQYHSLDVTGFLLACVATVIFIITKCLFCVWKFVRTGKKGKRD
As for B6, the K0.5 in series [2] is recorded as 298±43(210–387) uM; in series [3], 210±12(186–235) uM.

B7: UGT1A10 (Homo sapiens) (protein)
chain: GKLLVVPMDGSHWFTMQSVVEKLILRGHEVVVVMPEVSWQLERSLNCTVKTYSTSYTLEDQNREFMVFAHAQWKAQAQSIFSLLMSSSSGFLDLFFSHCRSLFNDRKLVEYLKESSFDAVFLDPFDTCGLIVAKYFSLPSVVFTRGIFCHHLEEGAQCPAPLSYVPNDLLGFSDAMTFKERVWNHIVHLEDHLFCQYLFRNALEIASEILQTPVTAYDLYSHTSIWLLRTDFVLDYPKPVMPNMIFIGGINCHQGKPLPMEFEAYINASGEHGIVVFSLGSMVSEIPEKKAMAIADALGKIPQTVLWRYTGTRPSNLANNTILVKWLPQNDLLGHPMTRAFITHAGSHGVYESICNGVPMVMMPLFGDQMDNAKRMETKGAGVTLNVLEMTSEDLENALKAVINDKSYKENIMRLSSLHKDRPVEPLDLAVFWVEFVMRHKGAPHLRPAAHDLTWYQYHSLDVIGFLLAVVLTVAFITFKCCAYGYRKCLGKKGRVKKAHKSKTH
Regarding B7, in series [4], the K0.5 was 56.7±2.3(51.9–61.5) uM and the Vmax worked out at 0.00091 µmol/min/mg.

B8: UGT2B17 (Homo sapiens) (protein)
chain: GKVLVWPTEYSHWINMKTILEELVQRGHEVIVLTSSASILVNASKSSAIKLEVYPTSLTKNDLEDFFMKMFDRWTYSISKNTFWSYFSQLQELCWEYSDYNIKLCEDAVLNKKLMRKLQESKFDVLLADAVNPCGELLAELLNIPFLYSLRFSVGYTVEKNGGGFLFPPSYVPVVMSELSDQMIFMERIKNMIYMLYFDFWFQAYDLKKWDQFYSEVLGRPTTLFETMGKAEMWLIRTYWDFEFPRPFLPNVDFVGGLHCKPAKPLPKEMEEFVQSSGENGIVVFSLGSMISNMSEESANMIASALAQIPQKVLWRFDGKKPNTLGSNTRLYKWLPQNDLLGHPKTKAFITHGGTNGIYEAIYHGIPMVGIPLFADQHDNIAHMKAKGAALSVDIRTMSSRDLLNALKSVINDPIYKENIMKLSRIHHDQPVKPLDRAVFWIEFVMRHKGAKHLRVAAHNLTWIQYHSLDVIAFLLACVATMIFMITKCCLFCFRKLAKTGKKKKRD
B8: the K0.5 in series [2] is given as 377±42(291–463) uM; in series [3], 540±26(485–595) uM. The Vmax in series [2] was found to be 5e-05 µmol/min/mg.

B9: UGT2B15 (Homo sapiens) (protein)
chain: GKVLVWPTEYSHWINMKTILEELVQRGHEVTVLTSSASTLVNASKSSAIKLEVYPTSLTKNYLEDSLLKILDRWIYGVSKNTFWSYFSQLQELCWEYYDYSNKLCKDAVLNKKLMMKLQESKFDVILADALNPCGELLAELFNIPFLYSLRFSVGYTFEKNGGGFLFPPSYVPVVMSELSDQMIFMERIKNMIHMLYFDFWFQIYDLKKWDQFYSEVLGRPTTLFETMGKAEMWLIRTYWDFEFPRPFLPNVDFVGGLHCKPAKPLPKEMEEFVQSSGENGIVVFSLGSMISNMSEESANMIASALAQIPQKVLWRFDGKKPNTLGSNTRLYKWLPQNDLLGHPKTKAFITHGGTNGIYEAIYHGIPMVGIPLFADQHDNIAHMKAKGAALSVDIRTMSSRDLLNALKSVINDPVYKENVMKLSRIHHDQPMKPLDRAVFWIEFVMRHKGAKHLRVAAHNLTWIQYHSLDVIAFLLACVATVIFIITKFCLFCFRKLAKKGKKKKRD
Turning to B9, in series [2], the K0.5 is recorded as 29.6±0.9(27.6–31.5) uM and the Vmax came out at 0.00083 µmol/min/mg.
